# According to IntAct's records for PubMed 19197237:
# B1: Peroxisomal biogenesis factor 19 (Homo sapiens), P40855 (parent)
# chain: MAAAEEGCSVGAEADRELEELLESALDDFDKAKPSPAPPSTTTAPDASGPQKRSPGDTAKDALFASQEKFFQELFDSELASQATAEFEKAMKELAEEEPHLVEQFQKLSEAAGRVGSDMTSQQEFTSCLKETLSGLAKNATDLQNSSMSEEELTKAMEGLGMDEGDGEGNILPIMQSIMQNLLSKDVLYPSLKEITEKYPEWLQSHRESLPPEQFEKYQEQHSVMCKICEQFEAETPTDSETTQKARFEMVLDLMQQLQDLGHPPKELAGEMPPGLNFDLDALNLSGPPGASGEQCLIM
# B2: Peroxisomal membrane protein PEX14 (Homo sapiens), O75381 (parent)
# chain: MASSEQAEQPSQPSSTPGSENVLPREPLIATAVKFLQNSRVRQSPLATRRAFLKKKGLTDEEIDMAFQQSGTAADEPSSLGPATQVVPVQPPHLISQPYSPAGSRWRDYGALAIIMAGIAFGFHQLYKKYLLPLILGGREDRKQLERMEAGLSELSGSVAQTVTQLQTTLASVQELLIQQQQKIQELAHELAAAKATTSTNWILESQNINELKSEINSLKGLLLNRRQFPPSPSAPKIPSWQIPVKSPSPSSPAAVNHHSSSDISPVSNESTSSSPGKEGHSPEGSTVTYHLLGPQEEGEGVVDVKGQVRMEVQGEEEKREDKEDEEDEEDDDVSHVDEEDCLGVQREDRRGGDGQINEQVEKLRRPEGASNESERD
# partner: B1 chain
# Variants of: B1
# Settings: with pex14_human PEX14, O75381
row,Variant,effect of a mutation on the interaction
1,MAAAEEGCSVGAEADRELEELLESALDDFDKAKPSPAPPSTTTAPDASGPQKRSPGDTAKDALFASQAKFFQELFDSELASQATAEFEKAMKELAEEEPHLVEQFQKLSEAAGRVGSDMTSQQEFTSCLKETLSGLAKNATDLQNSSMSEEELTKAMEGLGMDEGDGEGNILPIMQSIMQNLLSKDVLYPSLKEITEKYPEWLQSHRESLPPEQFEKYQEQHSVMCKICEQFEAETPTDSETTQKARFEMVLDLMQQLQDLGHPPKELAGEMPPGLNFDLDALNLSGPPGASGEQCLIM [E68A],disrupting interaction

# Variants of: B1
# Settings: with pex14_human PEX14, O75381
# Remark: another data set of the same source
row,Variant,effect of a mutation on the interaction
1,MAAAEEGCSVGAEADRELEELLESALDDFDKAKPSPAPPSTTTAPDASGPQKRSPGDTAKDALFASQEKAFQELFDSELASQATAEFEKAMKELAEEEPHLVEQFQKLSEAAGRVGSDMTSQQEFTSCLKETLSGLAKNATDLQNSSMSEEELTKAMEGLGMDEGDGEGNILPIMQSIMQNLLSKDVLYPSLKEITEKYPEWLQSHRESLPPEQFEKYQEQHSVMCKICEQFEAETPTDSETTQKARFEMVLDLMQQLQDLGHPPKELAGEMPPGLNFDLDALNLSGPPGASGEQCLIM [F70A],disrupting interaction

# Variants of: B1
# Settings: with pex14_human PEX14, O75381
# Remark: another data set of the same source
row,Variant,effect of a mutation on the interaction
1,MAAAEEGCSVGAEADRELEELLESALDDFDKAKPSPAPPSTTTAPDASGPQKRSPGDTAKDALFASQEKFAQELFDSELASQATAEFEKAMKELAEEEPHLVEQFQKLSEAAGRVGSDMTSQQEFTSCLKETLSGLAKNATDLQNSSMSEEELTKAMEGLGMDEGDGEGNILPIMQSIMQNLLSKDVLYPSLKEITEKYPEWLQSHRESLPPEQFEKYQEQHSVMCKICEQFEAETPTDSETTQKARFEMVLDLMQQLQDLGHPPKELAGEMPPGLNFDLDALNLSGPPGASGEQCLIM [F71A],disrupting interaction

# Variants of: B1
# Settings: with pex14_human PEX14, O75381
# Remark: another data set of the same source
row,Variant,effect of a mutation on the interaction
1,MAAAEEGCSVGAEADRELEELLESALDDFDKAKPSPAPPSTTTAPDASGPQKRSPGDTAKDALFASQEKFFQELADSELASQATAEFEKAMKELAEEEPHLVEQFQKLSEAAGRVGSDMTSQQEFTSCLKETLSGLAKNATDLQNSSMSEEELTKAMEGLGMDEGDGEGNILPIMQSIMQNLLSKDVLYPSLKEITEKYPEWLQSHRESLPPEQFEKYQEQHSVMCKICEQFEAETPTDSETTQKARFEMVLDLMQQLQDLGHPPKELAGEMPPGLNFDLDALNLSGPPGASGEQCLIM [F75A],disrupting interaction

# Variants of: B1
# Settings: with pex14_human PEX14, O75381
# Remark: another data set of the same source
row,Variant,effect of a mutation on the interaction
1,MAAAEEGCSVGAEADRELEELLESALDDFDKAKPSPAPPSTTTAPDASGPQKRSPGDTAKDALFASQEKFFQEAFDSELASQATAEFEKAMKELAEEEPHLVEQFQKLSEAAGRVGSDMTSQQEFTSCLKETLSGLAKNATDLQNSSMSEEELTKAMEGLGMDEGDGEGNILPIMQSIMQNLLSKDVLYPSLKEITEKYPEWLQSHRESLPPEQFEKYQEQHSVMCKICEQFEAETPTDSETTQKARFEMVLDLMQQLQDLGHPPKELAGEMPPGLNFDLDALNLSGPPGASGEQCLIM [L74A],disrupting interaction

# Variants of: B2
# Settings: with pex19_human PEX19, P40855
row,Variant,effect of a mutation on the interaction
1,MASSEQAEQPSQPSSTPGSENVLPREPLIATAVKFLQNSRVRQSPLATRRAWLKKKGLTDEEIDMAFQQSGTAADEPSSLGPATQVVPVQPPHLISQPYSPAGSRWRDYGALAIIMAGIAFGFHQLYKKYLLPLILGGREDRKQLERMEAGLSELSGSVAQTVTQLQTTLASVQELLIQQQQKIQELAHELAAAKATTSTNWILESQNINELKSEINSLKGLLLNRRQFPPSPSAPKIPSWQIPVKSPSPSSPAAVNHHSSSDISPVSNESTSSSPGKEGHSPEGSTVTYHLLGPQEEGEGVVDVKGQVRMEVQGEEEKREDKEDEEDEEDDDVSHVDEEDCLGVQREDRRGGDGQINEQVEKLRRPEGASNESERD [F52W],disrupting interaction

# Variants of: B2
# Settings: with pex19_human PEX19, P40855
# Remark: another data set of the same source
row,Variant,effect of a mutation on the interaction
1,MASSEQAEQPSQPSSTPGSENVLPREPLIATAVKFLQNSRVRQSPLATRRAFLKKEGLTDEEIDMAFQQSGTAADEPSSLGPATQVVPVQPPHLISQPYSPAGSRWRDYGALAIIMAGIAFGFHQLYKKYLLPLILGGREDRKQLERMEAGLSELSGSVAQTVTQLQTTLASVQELLIQQQQKIQELAHELAAAKATTSTNWILESQNINELKSEINSLKGLLLNRRQFPPSPSAPKIPSWQIPVKSPSPSSPAAVNHHSSSDISPVSNESTSSSPGKEGHSPEGSTVTYHLLGPQEEGEGVVDVKGQVRMEVQGEEEKREDKEDEEDEEDDDVSHVDEEDCLGVQREDRRGGDGQINEQVEKLRRPEGASNESERD [K56E],decreasing interaction

# Variants of: B2
# Settings: with pex19_human PEX19, P40855
# Remark: another data set of the same source
row,Variant,effect of a mutation on the interaction
1,MASSEQAEQPSQPSSTPGSENVLPREPLIATAVKFLQNSRVRQSPLATERAFLKKKGLTDEEIDMAFQQSGTAADEPSSLGPATQVVPVQPPHLISQPYSPAGSRWRDYGALAIIMAGIAFGFHQLYKKYLLPLILGGREDRKQLERMEAGLSELSGSVAQTVTQLQTTLASVQELLIQQQQKIQELAHELAAAKATTSTNWILESQNINELKSEINSLKGLLLNRRQFPPSPSAPKIPSWQIPVKSPSPSSPAAVNHHSSSDISPVSNESTSSSPGKEGHSPEGSTVTYHLLGPQEEGEGVVDVKGQVRMEVQGEEEKREDKEDEEDEEDDDVSHVDEEDCLGVQREDRRGGDGQINEQVEKLRRPEGASNESERD [R49E],decreasing interaction
